Paper PMC8012802

Tests used:
Assay in all cases: SEC-MALS; MiniDAWN TREOS II with Superdex 200 10/300 increase, 20 mM Tris-HCl pH 8.0, 100 mM NaCl, 0.5 ml/min; monomer and 6-mer peaks
[1] = target: OrfG C-terminal subdomain (OrfG_(223–331): from Ala223 to Asp331) (Streptococcus thermophilus (ICESt3))
[2] = target: OrfG central domain (OrfG_(64–204): from Ser64 to Ala204) (Streptococcus thermophilus (ICESt3))
[3] = target: OrfG soluble domain (OrfG_(64–331): from Ser64 to Asp331) (Streptococcus thermophilus (ICESt3))

Substance: OrfG C-terminal subdomain (OrfG_(223–331): from Ala223 to Asp331) (domain or fragment)
- stoichiometry N [1]: 6

Substance: OrfG central domain (OrfG_(64–204): from Ser64 to Ala204) (domain or fragment)
- stoichiometry N [2]: 6

Substance: OrfG soluble domain (OrfG_(64–331): from Ser64 to Asp331) (domain or fragment)
- mass fraction of the 6-mer peak [3]: 2.7%
- stoichiometry N [3]: 6
